Reference: patent US20200010567A1 (NEURIMMUNE, published 2020)

B1: NI-308.45C2 (antibody, V domains shown)
VH: QLQLQESGPGLVKPSQILSLTCAISGDSVFSNSAAWNWIRQSPSRGLEWLGRTYYRSKWDNDYAPSVKSRISINPDTSKNQFSLQLNSVTPEDTAVYYCAREVAYCGGDCYSVSFDYWGQGTLVTVSS
VL: not shown
notes: Recombinant complete human IgG1, kappa
B2: NI-308.15O7 (antibody, V domains shown)
VH: QVQLVESGGGVVQPGRSLRLSCAASGFTFSNHAMHWVRQAPGKGLEWVAVISYDGENTYYADSIEGRFTISRDNFKNTLFLQMYSLTADDTAMYFCARGGRRGHFTSYYLDYWGQGTLVTVSS
VL: CDIQMTQSPSSLSASVGDRVTITCRASQNIDKYLNWYQQIPGKAPKLLIYAASSLHSGVPSRFSGSGSGTDFSLTISSLQPEDFAIYYCQQSYSSFRTFGQGTKLEIK
B3: NI-308.18F7 (antibody, V domains shown)
VH: QVQLQESGPGLVKPSETLSVTCTVSGGSINDYYWNWIRQPAGKGLEWIGRIYASGTINYNPSLQSRVTMSIDTSKNQFSLDLISVSAADTAVYYCARWGQVVGDYYYGMDVWGQGTTVTVSS
VL: EIVLTQSPLSLSVTPGEPASISCKSSQSLQHTNGYNYLDWYLLKPGQSPQLLIFLTSNRASGVPDRFSGSGSGTNFTLKISRVEAEDVGVYYCMEGIQLWTFGQGTKLEIK
notes: as for B1
B4: NI-308.6B11 (antibody, V domains shown)
VH: EVQLVQSGAEVKRPGASVKVSCKVSGYTLTELSMHWVRQAPGKGLEWMGGFDPEDGETVYAQKFQGRVTMTEDTSTDTAYMELSSLRSEDTALYHCATYGSSWHWNEGNEGSYYFDYWGQGTLVTVSS
VL: CDIQMTQSPSSLSASVGDRVTITCQASQDISIYLNWYQQKPGKAPKLLIYDASNLETGVPSRFSGSGSGTDFTFTISGLQPEDVARYYCQQYDDLPITFGQGTRLEIK
notes: as for B1
B5: NI-308.28G1 (antibody, V domains shown)
VH: QVQLQESGPRLVKPSETLSLTCTVAGGSVNSYYWTWIQQSPGKGLEWLGRIYIAGRTNYNPSLTSRIALSVDTSRNQLSLKLTSVTAADTAIYYCARWGAESGDYYYGVDVWGPGTLVTVSS
VL: EIVMTQSPLSLPVTPGEPASISCKSSEGLLHSNGYTYLDWYLQKPGQAPQLLIFLASNRAAGVPDRFSGSGSGTDFTLKISRVEAEDVGVYYCMQAIQSPWTFGPGTKVEIK
notes: as for B1
B6: NI-308.5G2 (antibody, V domains shown)
VH: EVQLVQSGADLRNPGASVTVSCTASGYHFADNAINWLRQAPGQRLEWMGWINIYSGNTKYSQNFQGRVTFTRNTSASTAFMHLRSLRSEDTAVYFCARDPDSSGYYLPYFDYWGQGTLVTVSS
VL: DIQLTQSPDSLTLSLGERATINCKSSQSVFYNSNNKNYLAWYQQKPGQPPKLLMYWASTRESGVTDRFSGSGSGTDFTLTITNLQAEDVAVYYCQQFYSSPLTFGGGTKVEIK
notes: as for B1

Biological target: T1, (GP)15: H-C(GP)15-OH
T1 construct: synthetic, not coupled to BSA; also called poly-GP DPR protein peptide
T1 peptide: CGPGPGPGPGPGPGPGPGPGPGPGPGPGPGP
Experiment: indirect ELISA, coated peptide
Procedure: (§1) In brief, dipeptide repeat proteins were synthesized and purified by Schafer-N(Copenhagen, Denmark): (GA)₁₅: H-CHHHHHH(GA)₁₅-OH; (GP)₁₅: H-C(GP)₁₅-OH; (GR)₁₅: H-C(GR)₁₅-OH; (PA)₁₅: H-C(PA)₁₅-OH; (PR)₁₅: H—C(PR)₁₅-OH. 96-well microplates (Corning Incorporated, Corning, USA) were coated with dipeptide repeat protein peptides at a concentration of either 5 μg/ml or 20 μg/ml in coating buffer (15 mM Na₂CO₃, 35 mM NaHCO₃, pH 9.42). Non-specific binding sites were blocked for 1 h at room temperature with PBS/0.1% Tween®-20 containing 2% BSA (Sigma-Aldrich, Buchs, Switzerland). Primary antibodies were diluted to the indicated concentrations and incubated for 1 h at room temperature, followed by incubation with a donkey anti-human IgG Fcγ-specific antibody conjugated with HRP (Jackson ImmunoResearch Laboratories, Inc., West Grove, USA). Binding was determined by measurement of HRP activity in a standard colorimetric assay. EC₅₀ values were estimated by non-linear regression using GraphPad Prism software (San Diego, USA). The binding specificity and EC₅₀ of human-derived antibodies for C9orf72 dipeptide repeat protein peptides (GA)₁₅, (GP)₁₅, (GR)₁₅, (PA)₁₅ and (PR)₁₅ were determined by indirect ELISA.

| Binder | binding result |
| --- | --- |
| B1 | no binding |
| B2 | no binding |
| B3 | no binding |
| B4 | no binding |
| B5 | no binding |

Biological target: T2, (GR)15: H-C(GR)15-OH
T2 construct: synthetic, not coupled to BSA; also called poly-GR DPR protein peptide
T2 peptide: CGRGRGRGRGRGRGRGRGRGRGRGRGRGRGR
Experiment: indirect ELISA, coated peptide
Procedure: as §1

| Binder | binding result |
| --- | --- |
| B1 | no binding |
| B2 | no binding |
| B3 | no binding |
| B6 | no binding |
| B5 | no binding |

Biological target: T3, (PA)15: H-C(PA)15-OH
T3 construct: synthetic, not coupled to BSA; also called poly-PA DPR protein peptide
T3 peptide: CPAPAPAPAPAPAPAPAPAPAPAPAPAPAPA
Experiment: indirect ELISA, coated peptide
Procedure: as §1

| Binder | binding result |
| --- | --- |
| B1 | no binding |
| B2 | no binding |
| B3 | no binding |
| B6 | no binding |
| B4 | no binding |
| B5 | no binding |

Biological target: T4, (PR)15: H-C(PR)15-OH
T4 construct: synthetic, not coupled to BSA; also called poly-PR DPR protein peptide
T4 peptide: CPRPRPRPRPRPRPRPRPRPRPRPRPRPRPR
Experiment: indirect ELISA, coated peptide
Procedure: as §1

| Binder | binding result |
| --- | --- |
| B1 | no binding |
| B2 | no binding |
| B3 | no binding |
| B6 | no binding |
| B5 | no binding |

The binders below were run against Tau (UniProt P10636-8 1-441, limits assumed) (assay: indirect ELISA, coated protein).
Procedure: (§2) 96-well microplates (Corning) were coated with different target proteins at a concentration of 1-10 μg/ml in coating buffer (15 mM Na₂CO₃, 35 mM NaHCO₃, pH 9.42). Non-specific binding sites were blocked for 1 h at RT with PBS/0.1% Tween®-20 containing 2% BSA (Sigma-Aldrich, Buchs, Switzerland). […] Binding was determined using donkey anti-human IgG Fcγ-specific antibody conjugated with HRP (Jackson ImmunoResearch Laboratories, Inc., West Grove, USA) followed by measurement of HRP activity in a standard colorimetric assay. Signals for target protein were calculated in fold increase above median.

Sequence of Tau (P10636 other isoform, or with tags, fused parts or gaps limits assumed): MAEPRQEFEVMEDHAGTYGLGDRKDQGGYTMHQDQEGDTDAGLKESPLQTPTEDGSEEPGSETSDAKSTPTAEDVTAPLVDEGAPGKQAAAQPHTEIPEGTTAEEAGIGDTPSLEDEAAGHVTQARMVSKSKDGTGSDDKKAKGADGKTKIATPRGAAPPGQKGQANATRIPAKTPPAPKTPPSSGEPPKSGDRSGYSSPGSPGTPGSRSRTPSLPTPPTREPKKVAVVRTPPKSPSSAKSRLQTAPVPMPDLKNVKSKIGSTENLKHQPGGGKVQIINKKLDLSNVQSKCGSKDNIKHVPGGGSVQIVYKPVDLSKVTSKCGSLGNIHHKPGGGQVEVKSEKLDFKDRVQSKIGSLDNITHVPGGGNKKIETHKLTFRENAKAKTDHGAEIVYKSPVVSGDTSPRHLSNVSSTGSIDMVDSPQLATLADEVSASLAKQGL

| Binder | binding result |
| --- | --- |
| B1 | no binding (tested: 20 nM) |
| B2 | no binding (tested: 20 nM) |
| B3 | no binding (tested: 20 nM) |
| B6 | no binding (tested: 20 nM) |
| B4 | no binding (tested: 20 nM) |
| B5 | no binding (tested: 20 nM) |

Each binder was assayed against T5, transactive response DNA binding protein 43 (UniProt Q13148 1-414, limits assumed) (assay: indirect ELISA, coated protein).
T5 construct: also called TDP-43
Procedure: as §2

T5 sequence (Q13148 whole entry): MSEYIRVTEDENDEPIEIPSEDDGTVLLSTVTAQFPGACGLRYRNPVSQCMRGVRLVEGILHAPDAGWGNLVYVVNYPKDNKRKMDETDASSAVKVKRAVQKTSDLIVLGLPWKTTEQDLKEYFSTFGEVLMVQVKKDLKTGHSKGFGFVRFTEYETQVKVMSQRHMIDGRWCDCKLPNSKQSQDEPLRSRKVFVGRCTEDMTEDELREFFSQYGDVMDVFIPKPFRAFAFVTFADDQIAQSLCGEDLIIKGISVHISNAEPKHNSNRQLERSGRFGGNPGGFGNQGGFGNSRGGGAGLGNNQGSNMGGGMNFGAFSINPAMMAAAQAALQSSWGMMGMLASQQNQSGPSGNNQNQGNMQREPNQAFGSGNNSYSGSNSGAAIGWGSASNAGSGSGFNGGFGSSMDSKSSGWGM

| Binder | binding result |
| --- | --- |
| B1 | no binding (tested: 20 nM) |
| B2 | no binding (tested: 20 nM) |
| B3 | no binding (tested: 20 nM) |
| B6 | no binding (tested: 20 nM) |
| B4 | no binding (tested: 20 nM) |
| B5 | no binding (tested: 20 nM) |

What follows are binders tested against transthyrethin (UniProt P02766 21-147) (assay: indirect ELISA, coated protein).
Procedure: as §2

| Binder | binding result |
| --- | --- |
| B1 | no binding (tested: 20 nM) |
| B2 | no binding (tested: 20 nM) |
| B3 | no binding (tested: 20 nM) |
| B6 | no binding (tested: 20 nM) |
| B4 | no binding (tested: 20 nM) |
| B5 | no binding (tested: 20 nM) |

These binders were tested against T6, full-length amyloid precursor protein (UniProt P05067 18-770, limits assumed) (assay: indirect ELISA, coated protein).
T6 construct: also called flAPP
Procedure: as §2

T6 sequence (P05067 18-770 limits assumed): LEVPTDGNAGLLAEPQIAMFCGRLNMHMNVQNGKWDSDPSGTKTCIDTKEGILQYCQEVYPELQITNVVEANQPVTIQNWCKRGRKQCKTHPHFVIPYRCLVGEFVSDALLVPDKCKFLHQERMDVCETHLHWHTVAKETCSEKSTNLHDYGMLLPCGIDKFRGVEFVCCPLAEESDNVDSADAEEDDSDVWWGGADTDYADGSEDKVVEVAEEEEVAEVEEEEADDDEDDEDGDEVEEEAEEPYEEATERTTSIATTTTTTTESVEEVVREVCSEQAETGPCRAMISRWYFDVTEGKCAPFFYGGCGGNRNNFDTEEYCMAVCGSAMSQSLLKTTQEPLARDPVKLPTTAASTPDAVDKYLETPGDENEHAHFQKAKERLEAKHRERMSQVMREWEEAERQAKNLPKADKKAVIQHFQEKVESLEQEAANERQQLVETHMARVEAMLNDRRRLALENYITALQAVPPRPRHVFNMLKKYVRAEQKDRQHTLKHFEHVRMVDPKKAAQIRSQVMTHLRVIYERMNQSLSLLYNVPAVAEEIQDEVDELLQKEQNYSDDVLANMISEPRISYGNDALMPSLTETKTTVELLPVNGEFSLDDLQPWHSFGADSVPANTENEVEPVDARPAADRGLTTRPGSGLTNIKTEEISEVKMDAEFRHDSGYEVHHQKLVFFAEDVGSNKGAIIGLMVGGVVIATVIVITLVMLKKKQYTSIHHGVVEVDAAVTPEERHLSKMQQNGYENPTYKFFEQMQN

| Binder | binding result |
| --- | --- |
| B1 | no binding (tested: 20 nM) |
| B2 | no binding (tested: 20 nM) |
| B3 | no binding (tested: 20 nM) |
| B6 | no binding (tested: 20 nM) |
| B4 | no binding (tested: 20 nM) |
| B5 | no binding (tested: 20 nM) |

Biological target: T7, GA20: H-(GA)20HHHHHH-NH2 (C-terminal amide)
T7 peptide: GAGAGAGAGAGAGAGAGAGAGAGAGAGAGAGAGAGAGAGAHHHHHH
Experiment: indirect ELISA, coated His-tagged peptide
Description: (§3) In brief, dipeptide repeat proteins were synthesized and purified by Schafer-N (Copenhagen, Denmark): GA₂₀: H-(GA)₂₀HHHHHH-NH₂; GA₁₀: H-(GA)₁₀HHHHHH-NH₂; GA₆: H-(GA)₆HHHHHH-NH₂; GA₅: H-(GA)₅HHHHHH-NH₂; GA₄: H-(GA)₄HHHHHH-NH₂; GA₃: H-(GA)₃HHHHHH-NH₂; GA₂: H-(GA)₂HHHHHH-NH₂; GP₂₀: H-(GP)₂₀HHHHHH-NH₂; GP₁₀: H-(GP)₁₀HHHHHH-NH₂; GP₆: H-(GP)₆HHHHHH-NH₂; GP₅: H-(GP)₅HHHHHH-NH₂; GP₄: H-(GP)₄HHHHHH-NH₂; GP₃: H-(GP)₃HHHHHH-NH₂; GP₂: H-(GP)₂HHHHHH-NH₂. GR₂₀: H-(GR)₂₀HHHHHH-NH₂; GR₁₀: H-(GR)₁₀HHHHHH-NH₂; GR₆: H-(GR)₆HHHHHH-NH₂; GR₅: H-(GR)₅HHHHHH-NH₂; GR₄: H-(GR)₄HHHHHH-NH₂; GR₃: H-(GR)₃HHHHHH-NH₂; GR₂: H-(GR)₂HHHHHH-NH₂; PA₂₀: H-(PA)₂₀HHHHHH-NH₂; PA₁₀: H-(PA)₁₀HHHHHH-NH₂; PA₆: H-(PA)₆HHHHHH-NH₂; PA₅: H-(PA)₅HHHHHH-NH₂; PA₄: H-(PA)₄HHHHHH-NH₂; PA₃: H-(PA)₃HHHHHH-NH₂; PA₂: H-(PA)₂HHHHHH-NH₂; PR₂₀: H-(PR)₂₀HHHHHH-NH₂; PR₁₀: H-(PR)₁₀HHHHHH-NH₂; PR₆: H-(PR)₆HHHHHH-NH₂; PR₅: H-(PR)₅HHHHHH-NH₂; PR₄: H-(PR)₄HHHHHH-NH₂; PR₃: H-(PR)₃HHHHHH-NH₂; PR₂: H-(PR)₂HHHHHH-NH₂. 96-well microplates (Corning Incorporated, Corning, USA) were coated with dipeptide repeat protein peptides at a concentration of 50 μg/ml in coating buffer (15 mM Na₂CO₃, 35 mM NaHCO₃, pH 9.42). Non-specific binding sites were blocked for 1 h at room temperature with PBS/0.1% Tween®-20 containing 2% BSA (Sigma-Aldrich, Buchs, Switzerland). Primary antibodies were diluted to the indicated concentrations and incubated 1 h at room temperature, followed by incubation with a donkey anti-human IgG Fcγ-specific antibody conjugated with HRP (Jackson ImmunoResearch Laboratories, Inc., West Grove, USA). Binding was determined by measurement of HRP activity in a standard colorimetric assay. EC₅₀ values were estimated by non-linear regression using GraphPad Prism software (San Diego, USA).

| Binder | EC50 [nM] |
| --- | --- |
| B1 | 9.6 |
| B2 | 0.54 |
| B3 | 0.83 |
| B6 | 18.2 |
| B4 | 33.6 |
| B5 | 1.1 |

Biological target: T8, GA10: H-(GA)10HHHHHH-NH2 (C-terminal amide)
T8 peptide: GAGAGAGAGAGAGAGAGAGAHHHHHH
Experiment: indirect ELISA, coated His-tagged peptide
Description: as §3

| Binder | EC50 [nM] |
| --- | --- |
| B1 | 7.6 |
| B3 | 0.78 |
| B6 | 5.7 |
| B4 | 27.7 |
| B5 | 0.9 |

Biological target: T9, GA6: H-(GA)6HHHHHH-NH2
T9 peptide: H-GAGAGAGAGAGAHHHHHH-NH2
Experiment: indirect ELISA, coated His-tagged peptide
Description: as §3

| Binder | EC50 [nM] |
| --- | --- |
| B1 | > 200 |
| B3 | > 200 |
| B6 | > 200 |
| B4 | > 200 |
